The target in the experiment is T1, Thermus thermophilus multidrug-resistance protein A (TmrA), C-terminal His10-tag (Thermus thermophilus, UniProt Q72J05 1-600).
T1 construct: Thermus thermophilus multidrug-resistance protein A (TmrA), subunit of the heterodimeric ABC transporter TmrAB; Produced and purified together with TmrB as the heterodimer TmrAB; also called His10-tagged subunit of TmrAB; not shown: His10, C-terminal, kept
T1 sequence (looked up): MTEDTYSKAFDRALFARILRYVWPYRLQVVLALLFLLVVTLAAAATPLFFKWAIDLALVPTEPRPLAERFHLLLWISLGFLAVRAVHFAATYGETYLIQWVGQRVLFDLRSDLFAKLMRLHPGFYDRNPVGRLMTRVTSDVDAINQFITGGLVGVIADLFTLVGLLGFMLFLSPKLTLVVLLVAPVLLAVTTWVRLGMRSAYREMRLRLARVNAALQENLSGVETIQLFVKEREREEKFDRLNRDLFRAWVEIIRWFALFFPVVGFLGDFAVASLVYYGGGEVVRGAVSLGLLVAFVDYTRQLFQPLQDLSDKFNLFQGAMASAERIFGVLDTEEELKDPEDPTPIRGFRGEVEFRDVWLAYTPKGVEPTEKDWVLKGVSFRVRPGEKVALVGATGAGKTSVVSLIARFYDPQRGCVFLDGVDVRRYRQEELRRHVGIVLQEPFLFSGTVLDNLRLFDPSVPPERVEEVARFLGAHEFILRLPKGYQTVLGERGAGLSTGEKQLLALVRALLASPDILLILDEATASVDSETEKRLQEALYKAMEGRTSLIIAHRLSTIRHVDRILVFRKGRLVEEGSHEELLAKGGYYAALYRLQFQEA
Description: native gel or EMSA; blue native PAGE of purified TmrAB (1.3 µg, 500 nM; produced in E. coli and purified as a whole via His10 on TmrA and by SEC) in DDM or reconstituted in MSP1D1 nanodiscs; labelled with tris- or hexaNTA-Alexa647 (450 nM), in-gel fluorescence. Particulars: both partners purified. A general note: Mobility shift assays separate free from complexed probe on a gel.

The source of these data is publication PMC7083852, “Ultrafast in-gel detection by fluorescent super-chelator probes with HisQuick-PAGE” (Communications Biology, 2020).

B1: Thermus thermophilus multidrug-resistance protein B (TmrB) (natural protein, UniProt Q72J04 1-578, looked up)
chain: MTGRSAAPLLRRLWPYVGRYRWRYLWAVLAGLVSIFFFVLTPYFLRLAVDAVQAGRGFGVYALAIVASAALSGLLSYAMRRLAVVASRQVEYDLRRDLLHHLLTLDRDFYHKHRVGDLMNRLNTDLSAVREMVGPGILMGSRLSFLVLLAFLSMYAVNARLAFYLTLILPGIFLAMRFLLRLIDRRYREAQEVFDRISTLAQEAFSGIRVVKGYALERRMVAWFQDLNRLYVEKSLALARVEGPLHALLGFLMGFAFLTVLWAGGAMVVRGELSVGELVQFNAYLAQLTWPILGLGWVMALYQRGLTSLRRLFELLDEKPAIRDEDPLPLALEDLSGEVRFEGVGLKRDGRWLLRGLTLTIPEGMTLGITGRTGSGKSLLAALVPRLLDPSEGRVYVGGHEARRIPLAVLRKAVGVAPQEPFLFSETILENIAFGLDEVDRERVEWAARLAGIHEEILAFPKGYETVLGERGITLSGGQRQRVALARALAKRPKILILDDALSAVDAETEARILQGLKTVLGKQTTLLISHRTAALRHADWIIVLDGGRIVEEGTHESLLQAGGLYAEMDRLQKEVEA
notes: Thermus thermophilus multidrug-resistance protein B (TmrB), subunit of the heterodimeric ABC transporter TmrAB; Produced and purified together with TmrA as the heterodimer TmrAB; also called subunit of TmrAB
Consider B1, for which the binding result is “binds”.
